Reference: patent US20060193829A1
Positions of bridges follow the written chain, without caps; N, C: chain ends. No end group written: not given here. *: point of attachment. NHNH2 = NN*

Target: REFACTO® (recombinant factor VIII-like polypeptide consisting of amino acids 1-743 and 1638 through 2332 of human factor VIII) (human) (UniProt P00451)
Test: phage ELISA, phage isolate on factor VIII target, anti-M13-HRP

Chain of REFACTO® (recombinant factor VIII-like polypeptide consisting of amino acids 1-743 and 1638 through 2332 of human factor VIII) (human) (P00451 20-762, chain 1 of 2): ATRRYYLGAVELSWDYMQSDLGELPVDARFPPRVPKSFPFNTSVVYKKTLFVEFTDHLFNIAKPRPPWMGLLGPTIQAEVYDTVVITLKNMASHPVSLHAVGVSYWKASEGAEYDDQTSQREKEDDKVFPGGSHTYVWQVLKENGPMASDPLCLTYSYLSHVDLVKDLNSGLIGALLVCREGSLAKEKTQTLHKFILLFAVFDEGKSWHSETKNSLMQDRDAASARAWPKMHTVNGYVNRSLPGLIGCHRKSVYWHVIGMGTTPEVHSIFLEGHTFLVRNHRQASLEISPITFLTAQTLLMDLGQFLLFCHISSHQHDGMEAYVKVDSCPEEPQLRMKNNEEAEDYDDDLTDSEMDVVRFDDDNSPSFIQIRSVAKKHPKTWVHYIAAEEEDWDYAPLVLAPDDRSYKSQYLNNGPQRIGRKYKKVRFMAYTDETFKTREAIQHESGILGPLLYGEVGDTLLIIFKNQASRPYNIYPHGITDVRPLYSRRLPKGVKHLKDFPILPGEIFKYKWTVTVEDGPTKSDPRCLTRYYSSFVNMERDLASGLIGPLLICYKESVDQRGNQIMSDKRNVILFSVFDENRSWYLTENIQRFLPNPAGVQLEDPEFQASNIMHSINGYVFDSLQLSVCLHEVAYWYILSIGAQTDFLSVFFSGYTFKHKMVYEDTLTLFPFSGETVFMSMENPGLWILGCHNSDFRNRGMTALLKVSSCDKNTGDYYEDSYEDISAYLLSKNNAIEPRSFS
Chain of REFACTO® (recombinant factor VIII-like polypeptide consisting of amino acids 1-743 and 1638 through 2332 of human factor VIII) (human) (P00451 1657-2351, chain 2 of 2): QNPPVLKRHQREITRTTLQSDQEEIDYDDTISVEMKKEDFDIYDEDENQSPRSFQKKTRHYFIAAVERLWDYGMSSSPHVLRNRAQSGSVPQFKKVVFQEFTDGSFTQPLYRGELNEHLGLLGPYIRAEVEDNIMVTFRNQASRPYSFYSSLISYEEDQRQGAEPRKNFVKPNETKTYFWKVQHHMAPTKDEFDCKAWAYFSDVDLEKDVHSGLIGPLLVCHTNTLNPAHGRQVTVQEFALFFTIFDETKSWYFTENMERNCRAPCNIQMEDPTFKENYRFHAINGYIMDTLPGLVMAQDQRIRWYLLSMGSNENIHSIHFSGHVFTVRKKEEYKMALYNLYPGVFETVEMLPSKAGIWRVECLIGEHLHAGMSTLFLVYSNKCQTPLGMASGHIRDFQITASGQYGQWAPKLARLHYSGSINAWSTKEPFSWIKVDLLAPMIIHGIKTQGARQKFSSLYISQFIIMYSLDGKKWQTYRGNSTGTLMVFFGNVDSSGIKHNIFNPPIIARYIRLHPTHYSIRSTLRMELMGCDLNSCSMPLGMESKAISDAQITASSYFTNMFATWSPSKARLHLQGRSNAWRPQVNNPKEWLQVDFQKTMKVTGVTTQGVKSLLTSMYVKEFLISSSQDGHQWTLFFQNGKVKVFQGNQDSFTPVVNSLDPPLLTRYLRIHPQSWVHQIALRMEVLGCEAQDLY

ELISA signal [OD630]	Binder
0.7	HPCGSWFRPCFH [TN8 isolate 02 (SEQ ID NO: 14)]
0.4	HACGSWFRPCHA [TN8 isolate 07 (SEQ ID NO: 15)]
0.2	FCHVFHFSHCD [TN9 isolate 01 (SEQ ID NO: 24)]
0.2	RGCGSWLRPCLD [TN8 isolate 05 (SEQ ID NO: 11)]
1.1	FCWVFNFSHCS [TN9 isolate 03 (SEQ ID NO: 26)]
1	FCWVFPFNHCS [TN9 isolate 12 (SEQ ID NO: 28)]
0.4	HLCGAWFRPCDA [TN8 isolate 02 (SEQ ID NO: 16)]
0.4	FGCSWLFPCPF [TN7 isolate A08]
1.1	FCWVFPFQHCA [TN9 isolate 09 (SEQ ID NO: 29)]
0.3	HRCGSWLHPCLA [TN8 isolate 11/G10 (SEQ ID NO: 21)]
0.3	RLCSWISPCSA [TN7 isolate D04]
0.2	HGCGAWFRPCHA [TN8 isolate 01 (SEQ ID NO: 18)]
0.5	RLCSWVSPCSA [TN7 isolate C5/G10]
0.5	HSCGSWLFPCFA [TN7 isolate A06]
0.2	HPCGAWFNPCPR [TN8 isolate 01 (SEQ ID NO: 19)]
1	HPCGSWLRPCLH [TN8 isolate 10 (SEQ ID NO: 10)]
1	HPCGAWLRPCYN [TN8 isolate 08 (SEQ ID NO: 20)]
0.4	FCWVFPFNHCD [TN9 isolate 02 (SEQ ID NO: 27)]
0.2	FCHVFPFLHCD [TN9 isolate 11 (SEQ ID NO: 32)]
0.3	HPCGSWLHPCAA [TN8 isolate 04 (SEQ ID NO: 12)]
0.1	FHCIGVWFCLH [TN7 isolate A09]
0.2	FCWVHPFAHCL [TN9 isolate 02 (SEQ ID NO: 23)]
0.3	FCWVFPFHHCF [TN9 isolate 06 (SEQ ID NO: 30)]
0.5	FCHVFNFVHCS [TN9 isolate 01 (SEQ ID NO: 31)]
0.4	HLCFAWFRPCDA [TN8 isolate 12 (SEQ ID NO: 17)]
0.3	HPCGSWFNPCAH [TN8 isolate 02 (SEQ ID NO: 13)]
0.2	PHCNWLFPCSL [TN7 isolate D03]

Target: REFACTO® (recombinant factor VIII-like polypeptide consisting of amino acids 1-743 and 1638 through 2332 of human factor VIII) (human) (UniProt P00451)
Test: phage ELISA, with target against without target

R (ratio of the ELISA score with target present to the ELISA score without target)	Binder
16	HPCGSWFRPCFH [TN8 isolate 02 (SEQ ID NO: 14)]
6	HACGSWFRPCHA [TN8 isolate 07 (SEQ ID NO: 15)]
24	FCWVFNFSHCS [TN9 isolate 03 (SEQ ID NO: 26)]
18	FCWVFPFNHCS [TN9 isolate 12 (SEQ ID NO: 28)]
14	FCWVFNWVHCD [TN9/1 isolate … (SEQ ID NO: 75)]
24	FCWVFAFDHCH (not fully specified (bridges); cysteine pairing not given here) [TN9/1 isolate … (SEQ ID NO: 71)]
6	HLCGAWFRPCDA [TN8 isolate 02 (SEQ ID NO: 16)]
8	FGCSWLFPCPF [TN7 isolate A08]
24	FCWVFPFQHCA [TN9 isolate 09 (SEQ ID NO: 29)]
6	HRCGSWLHPCLA [TN8 isolate 11/G10 (SEQ ID NO: 21)]
6	RLCSWISPCSA [TN7 isolate D04]
10	RLCSWVSPCSA [TN7 isolate C5/G10]
10	HSCGSWLFPCFA [TN7 isolate A06]
16	HPCGSWLRPCLH [TN8 isolate 10 (SEQ ID NO: 10)]
8	FCWVFQFRHCH [TN9/1 isolate … (SEQ ID NO: 77)]
20	HPCGAWLRPCYN [TN8 isolate 08 (SEQ ID NO: 20)]
8	FCWVFPFNHCD [TN9 isolate 02 (SEQ ID NO: 27)]
6	HPCGSWLHPCAA [TN8 isolate 04 (SEQ ID NO: 12)]
6	FCWVFPFHHCF [TN9 isolate 06 (SEQ ID NO: 30)]
8	FCHVFNFVHCS [TN9 isolate 01 (SEQ ID NO: 31)]
8	HLCFAWFRPCDA [TN8 isolate 12 (SEQ ID NO: 17)]
8	HPCGSWFNPCAH [TN8 isolate 02 (SEQ ID NO: 13)]

Target: native human factor VIII (nhfVIII) (human) (UniProt P00451)
Test: batch binding to regenerated peptide beads; target in fraction by sandwich ELISA

Chain of native human factor VIII (nhfVIII) (human) (P00451 20-2351): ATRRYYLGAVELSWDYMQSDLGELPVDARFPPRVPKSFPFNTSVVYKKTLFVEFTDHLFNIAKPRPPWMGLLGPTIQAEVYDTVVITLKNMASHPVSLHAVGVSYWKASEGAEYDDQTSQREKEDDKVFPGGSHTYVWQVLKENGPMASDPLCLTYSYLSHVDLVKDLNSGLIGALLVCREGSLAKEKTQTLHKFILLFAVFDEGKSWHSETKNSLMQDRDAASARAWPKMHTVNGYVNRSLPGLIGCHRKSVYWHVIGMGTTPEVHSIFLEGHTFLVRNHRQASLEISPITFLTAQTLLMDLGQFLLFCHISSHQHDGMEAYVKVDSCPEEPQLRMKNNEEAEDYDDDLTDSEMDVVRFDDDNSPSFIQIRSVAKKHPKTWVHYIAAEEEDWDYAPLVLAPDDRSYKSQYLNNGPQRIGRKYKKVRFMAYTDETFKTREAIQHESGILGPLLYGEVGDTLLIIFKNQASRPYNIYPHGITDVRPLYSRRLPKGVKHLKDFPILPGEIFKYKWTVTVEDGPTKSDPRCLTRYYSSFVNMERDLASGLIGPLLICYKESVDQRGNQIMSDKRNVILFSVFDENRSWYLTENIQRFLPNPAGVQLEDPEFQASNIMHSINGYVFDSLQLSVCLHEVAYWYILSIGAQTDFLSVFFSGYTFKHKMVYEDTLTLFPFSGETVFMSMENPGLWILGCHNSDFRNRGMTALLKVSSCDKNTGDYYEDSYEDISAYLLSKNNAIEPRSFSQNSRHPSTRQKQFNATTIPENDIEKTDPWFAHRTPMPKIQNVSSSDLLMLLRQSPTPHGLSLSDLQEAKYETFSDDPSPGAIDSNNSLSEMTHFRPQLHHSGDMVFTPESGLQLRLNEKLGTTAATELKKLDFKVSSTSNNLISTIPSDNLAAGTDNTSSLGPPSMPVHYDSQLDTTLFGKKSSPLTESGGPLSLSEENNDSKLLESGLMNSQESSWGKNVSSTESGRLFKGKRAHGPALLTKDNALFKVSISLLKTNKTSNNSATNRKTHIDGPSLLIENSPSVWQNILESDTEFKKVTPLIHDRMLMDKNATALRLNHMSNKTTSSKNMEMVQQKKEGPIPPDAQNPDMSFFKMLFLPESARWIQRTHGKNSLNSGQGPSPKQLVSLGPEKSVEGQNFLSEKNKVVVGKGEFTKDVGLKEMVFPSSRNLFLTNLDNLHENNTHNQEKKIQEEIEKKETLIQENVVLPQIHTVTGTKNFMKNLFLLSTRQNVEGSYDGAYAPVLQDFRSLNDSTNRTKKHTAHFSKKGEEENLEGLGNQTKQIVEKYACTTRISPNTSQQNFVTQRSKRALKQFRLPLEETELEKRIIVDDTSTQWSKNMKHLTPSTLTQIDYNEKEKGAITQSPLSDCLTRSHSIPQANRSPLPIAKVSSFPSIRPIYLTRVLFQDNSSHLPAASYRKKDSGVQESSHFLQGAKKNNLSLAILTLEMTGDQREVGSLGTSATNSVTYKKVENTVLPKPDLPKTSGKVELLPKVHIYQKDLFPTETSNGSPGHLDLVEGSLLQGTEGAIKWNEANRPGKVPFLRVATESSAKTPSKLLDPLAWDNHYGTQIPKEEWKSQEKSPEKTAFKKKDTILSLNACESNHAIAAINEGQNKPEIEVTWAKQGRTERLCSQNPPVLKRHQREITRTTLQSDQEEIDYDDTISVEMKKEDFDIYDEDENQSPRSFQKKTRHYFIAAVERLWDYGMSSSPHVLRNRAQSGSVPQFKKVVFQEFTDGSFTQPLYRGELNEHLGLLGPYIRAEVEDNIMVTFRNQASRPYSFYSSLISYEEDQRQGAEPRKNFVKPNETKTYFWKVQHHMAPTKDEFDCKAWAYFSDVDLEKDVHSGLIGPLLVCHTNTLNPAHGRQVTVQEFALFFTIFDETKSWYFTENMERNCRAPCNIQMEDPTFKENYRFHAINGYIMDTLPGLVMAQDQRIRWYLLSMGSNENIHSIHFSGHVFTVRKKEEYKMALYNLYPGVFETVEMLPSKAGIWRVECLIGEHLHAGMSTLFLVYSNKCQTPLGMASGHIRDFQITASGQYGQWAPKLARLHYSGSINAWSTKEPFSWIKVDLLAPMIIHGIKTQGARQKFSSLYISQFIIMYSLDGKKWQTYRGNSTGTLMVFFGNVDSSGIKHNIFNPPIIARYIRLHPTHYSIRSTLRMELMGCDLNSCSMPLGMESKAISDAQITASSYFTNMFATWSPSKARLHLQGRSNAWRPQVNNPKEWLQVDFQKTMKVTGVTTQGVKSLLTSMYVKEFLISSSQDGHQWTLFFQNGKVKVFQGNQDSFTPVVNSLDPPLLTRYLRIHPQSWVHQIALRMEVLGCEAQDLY

% of Total Recovered in Eluate [%]	% of Total Recovered in Unbound [%]	% of Total Recovered in Wash [%]	Binder
16	70	14	AEGTGDFGCSWLFPCPFDPGPEGGGS-NHNH2 (disulfide 9-15 (inferred)) [Affinity ligand CS-456]
21	67	12	AEGTGDHLCGAWFRPCDADPGPEGGGS-NHNH2 (disulfide 9-16 (inferred)) [Affinity ligand CS-454]
39	48	13	AEGTGDFCWVFAFDHCHDPGPEGGGS-NHNH2 (disulfide 8-16 (inferred)) [Affinity ligand CS-458]

Target: REFACTO® (recombinant factor VIII-like polypeptide consisting of amino acids 1-743 and 1638 through 2332 of human factor VIII) (human) (UniProt P00451)
Test: as above

% of Total Recovered in Eluate [%]	% of Total Recovered in Unbound [%]	% of Total Recovered in Wash [%]	Binder
27	59	14	AEGTGDFCWVFAFDHCHDPGPEGGGS-NHNH2 (disulfide 8-16 (inferred)) [Affinity ligand CS-458]

Target: REFACTO® (recombinant factor VIII-like polypeptide consisting of amino acids 1-743 and 1638 through 2332 of human factor VIII) (human) (UniProt P00451)
Test: affinity column, peptide on Toyopearl Formyl 650-M; target in fraction by RP-HPLC

% recovery, Elution A [%]	% recovery, Elution B [%]	% recovery, Flow [%]	% recovery, pH2 [%]	Binder
44.8	0	3.4	0	AEGTGDFGCSWLFPCPFDPGPEGGGS-NHNH2 (disulfide 9-15 (inferred)) [Affinity ligand CS-456]
1.4	0	65.8	0	AEGTGDFHCIGVWFCLHDPGPEGGGS-NHNH2 (disulfide 9-15 (inferred)) [Affinity ligand CS-455]
45.1	0	2.5	0	AEGTGDHLCGAWFRPCDADPGPEGGGS-NHNH2 (disulfide 9-16 (inferred)) [Affinity ligand CS-454]
28.8	0	24.6	0	AEGTGDFCWVFPFHHCFDPGPEGGGS-NHNH2 (disulfide 8-16 (inferred)) [Affinity ligand CS-460]
42.1	0	1.6	0	AEGTGDFCWVFPFQHCADPGPEGGGS-NHNH2 (disulfide 8-16 (inferred)) [Affinity ligand CS-459]
54.3	0	1.8	0	AEGTGDFCWVFAFDHCHDPGPEGGGS-NHNH2 (disulfide 8-16 (inferred)) [Affinity ligand CS-458]
43.2	0	0	0	AEGTGDHPCGSWLRPCLHDPGPEGGGS-NHNH2 (disulfide 9-16 (inferred)) [Affinity ligand CS-453]

Target: REFACTO® (recombinant factor VIII-like polypeptide consisting of amino acids 1-743 and 1638 through 2332 of human factor VIII) (human) (UniProt P00451)
Test: batch binding to peptide beads; target in fraction by sandwich ELISA

% of Input Recovered in Eluate [%]	% of Input Recovered in Unbound [%]	% of Input Recovered in Wash [%]	Binder
24	47	20	AEGTGDFGCSWLFPCPFDPGPEGGGS-NHNH2 (disulfide 9-15 (inferred)) [Affinity ligand CS-456]
49	24	12	AEGTGDHLCGAWFRPCDADPGPEGGGS-NHNH2 (disulfide 9-16 (inferred)) [Affinity ligand CS-454]
47	20	10	AEGTGDFCWVFAFDHCHDPGPEGGGS-NHNH2 (disulfide 8-16 (inferred)) [Affinity ligand CS-458]

Target: REFACTO® (recombinant factor VIII-like polypeptide consisting of amino acids 1-743 and 1638 through 2332 of human factor VIII) (human) (UniProt P00451)
Test: affinity column, peptide on Toyopearl Formyl 650-M; target in fraction by activity assay

% recovery, Elution A [%]	% recovery, Flow [%]	Binder
43	4.8	AEGTGDFGCSWLFPCPFDPGPEGGGS-NHNH2 (disulfide 9-15 (inferred)) [Affinity ligand CS-456]
1.3	61.6	AEGTGDFHCIGVWFCLHDPGPEGGGS-NHNH2 (disulfide 9-15 (inferred)) [Affinity ligand CS-455]
42.4	2.2	AEGTGDHLCGAWFRPCDADPGPEGGGS-NHNH2 (disulfide 9-16 (inferred)) [Affinity ligand CS-454]
0	28.4	AEGTGDFCWVFPFHHCFDPGPEGGGS-NHNH2 (disulfide 8-16 (inferred)) [Affinity ligand CS-460]
31.2	6.4	AEGTGDFCWVFPFQHCADPGPEGGGS-NHNH2 (disulfide 8-16 (inferred)) [Affinity ligand CS-459]
55.6	1.4	AEGTGDFCWVFAFDHCHDPGPEGGGS-NHNH2 (disulfide 8-16 (inferred)) [Affinity ligand CS-458]
26.4	0	AEGTGDHPCGSWLRPCLHDPGPEGGGS-NHNH2 (disulfide 9-16 (inferred)) [Affinity ligand CS-453]
